The target in the assay is a seven trans-membrane receptor. Briefly: cell-based or functional assay.

Where no end group is shown, it is not given here.

B1: 2.022 kDa peptide, amino acids 110-128 of α-chain hemoglobin (SEQ ID No: 9) (peptide)
peptide: AAHLPAEFTPAVHASLDKF-NH2
B1: the half-saturation effect of the peptide on the decrease in cell area of A7R5 cells with 5 nM bradykinin was determined as 9.35 µM and the increase of rat uterine contraction in the presence of oxytocin (isometric tissue bath, 100 µM peptide) worked out at 30%.

The values above are taken from patent US20100080803A1.
